Experimental data published in paper PMC4445002, “Efficient inhibition of tumor angiogenesis and growth by a synthetic peptide blocking S100A4-methionine aminopeptidase 2 interaction” (Molecular Therapy. Methods & Clinical Development, 2015).

B1: MetAP2(1–229): truncated form of MetAP2, amino acids 1–229, expressed from retrovirus (protein, UniProt P50579 1-229, looked up, fragment)
chain: MAGVEEVAASGSHLNGDLDPDDREEGAASTAEEAAKKKRRKKKKSKGPSAAGEQEPDKESGASVDEVARQLERSALEDKERDEDDEDGDGDGDGATGKKKKKKKKKRGPKVQTDPPSVPICDLYPNGVFPKGQECEYPPTQDGRTAAWRTTSEEKKALDQASEEIWNDFREAAEAHRQVRKYVMSWIKPGMTMIEICEKLEDCSRKLIKENGLNAGLAFPTGCSLNNCA
B2: MetAP2(1–169): truncated MetAP2, amino acids 1–169, control, expressed from retrovirus (protein, UniProt P50579 1-169, looked up, fragment)
chain: MAGVEEVAASGSHLNGDLDPDDREEGAASTAEEAAKKKRRKKKKSKGPSAAGEQEPDKESGASVDEVARQLERSALEDKERDEDDEDGDGDGDGATGKKKKKKKKKRGPKVQTDPPSVPICDLYPNGVFPKGQECEYPPTQDGRTAAWRTTSEEKKALDQASEEIWNDF
B3: ECFP-MetAP2: ECFP-tagged full-length MetAP2 expressed in HeLa cells (protein)
chain: AGVEQAASFGGHLNGDLDPDDREEGTSSTAEEAAKKKRRKKKKGKGAVSAVQQELDKESGALVDEVAKQLESQALEEKERDDDDEDGDGDADGATGKKKKKKKKKRGPKVQTDPPSVPICDLYPNGVFPKGQECEYPPTQDGRTAAWRTTSEEKKALDQASEEIWNDFREAAEAHRQVRKYVMSWIKPGMTMIEICEKLEDCSRKLIKENGLNAGLAFPTGCSLNNCAAHYTPNAGDTTVLQYDDICKIDFGTHISGRIIDCAFTVTFNPKYDILLTAVKDATNTGIKCAGIDVRLCDVGEAIQEVMESYEVEIDGKTYQVKPIRNLNGHSIGPYRIHAGKTVPIVKGGEATRMEEGEVYAIETFGSTGKGVVHDDMECSHYMKNFDVGHVPIRLPRTKHLLNVINENFGTLAFCRRWLDRLGESKYLMALKNLCDLGIVDPYPPLCDIKGSYTAQFEHTILLRPTCKEVVSRGDDY
modifications: left off: ECFP, end not stated, kept
notes: ECFP-tagged full-length MetAP2 expressed in HeLa cells

Legend:
[1] = tested on: MSS31 cells; assay: DNA synthesis (BrdU uptake ELISA) in retrovirally infected cells; type: cell-based, mouse; settings: retroviral overexpression, 10% FBS and 10 μmol/l BrdU for 6 hours, OD450
Method: cDNA fragments encoding amino acids 1–169 [MetAP2(1–169)] or 1–229 [MetAP2(1–229)] of MetAP2 were PCR amplified and inserted into the multicloning site (SalI/NotI site) of the pRX-puro vector (Supplementary Figure S1).
DNA synthesis was quantified by measuring bromodeoxyuridine (BrdU) incorporation using the Cell Proliferation ELISA BrdU kit (Roche Applied Science, Penzberg, Upper Bavaria, Germany). MSS31 cells cultured for 24 hours in a medium containing 0.2% serum were stimulated with a medium containing 10% FBS and 10 μmol/l BrdU for 6 hours. The cells were harvested and BrdU uptake was measured according to the manufacturer’s protocol. Briefly, the cells were fixed, denatured, and incubated with the monoclonal anti-BrdU-peroxidase antibody. The immune complexes were then detected by the subsequent reaction with tetramethyl-benzidine. The reaction product was quantified by measuring the absorbance (OD450) using a scanning multiwell spectrophotometer.

[2] = tested on: S100A4; assay: FRET acceptor-photobleaching analysis in live HeLa cells; type: binding; settings: ECFP fusion cotransfected with EYFP-S100A4, acceptor photobleaching, n = 8–11, **P < 0.01, ***P < 0.001

Molecule	serum-induced DNA synthesis [1]	FRET efficiency with EYFP-S100A4 vs negative controls [2]
B1	resulted in a marked suppression of serum-induced DNA synthesis	
B2	but not MetAP2(1–169), resulted in a marked suppression of serum-induced DNA synthesis	
B3		significantly higher than that of the negative controls
